The labels stand for the following.
B1: Protein BZR1 homolog 1 (Oryza sativa subsp. japonica (Rice)), Q7XI96 (parent)
chain: MTSGAAAAGRTPTWKERENNKRRERRRRAIAAKIFTGLRALGNYNLPKHCDNNEVLKALCREAGWVVEDDGTTYRKGCKPPPSSAGGASVGMSPCSSTQLLSAPSSSFPSPVPSYHASPASSSFPSPSRIDNPSASCLLPFLRGLPNLPPLRVSSSAPVTPPLSSPTASRPPKIRKPDWDVDPFRHPFFAVSAPASPTRGRRLEHPDTIPECDESDVSTVDSGRWISFQMATTAPTSPTYNLVNPGASTSNSMEIEGTAGRGGAEFEFDKGRVTPWEGERIHEVAAEELELTLGVGAK
partner: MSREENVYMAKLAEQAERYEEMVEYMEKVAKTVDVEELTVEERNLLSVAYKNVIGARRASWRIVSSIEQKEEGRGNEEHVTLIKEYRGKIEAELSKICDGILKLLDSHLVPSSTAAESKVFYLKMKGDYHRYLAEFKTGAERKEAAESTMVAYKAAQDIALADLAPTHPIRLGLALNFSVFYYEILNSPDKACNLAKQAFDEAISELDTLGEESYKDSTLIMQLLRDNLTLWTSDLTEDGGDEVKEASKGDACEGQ

This experiment covers variants of B1. Conditions: with 14333_orysj GF14C.
With MTSGAAAAGRTPTWKERENNKRRERRRRAIAAKIFTGLRALGNYNLPKHCDNNEVLKALCREAGWVVEDDGTTYRKGCKPPPSSAGGASVGMSPCSSTQLLSAPSSSFPSPVPSYHASPASSSFPSPSRIDNPSASCLLPFLRGLPNLPPLRVSSGAPVTPPLSSPTASRPPKIRKPDWDVDPFRHPFFAVSAPASPTRGRRLEHPDTIPECDESDVSTVDSGRWISFQMATTAPTSPTYNLVNPGASTSNSMEIEGTAGRGGAEFEFDKGRVTPWEGERIHEVAAEELELTLGVGAK [S156G], the “effect of a mutation on the interaction” value was “disrupting interaction”.

The values are drawn from IntAct's records for PubMed 17699623.
